Measurements taken from US20260242735A1 (UNIVERSIT T BASEL, published 2026).

How the values were obtained:
Experiment in all cases: alanine scan, flow cytometry, HEK293-T;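 also: antibody binding to each alanine-substituted CD33 mutant expressed transiently in HEK293-T, read as fluorescence minus background, mean of duplicates, relative to wild-type CD33 set as 100%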
human CD33 V282A = human CD33 V282A (human, UniProt P20138 18-364)
human CD33 H285A = human CD33 H285A (human, UniProt P20138 18-364)
human CD33 R291A = human CD33 R291A (human, UniProt P20138 18-364)
human CD33 I262A = human CD33 I262A (human, UniProt P20138 18-364)
human CD33 D298A = human CD33 D298A (human, UniProt P20138 18-364)
human CD33 T292A = human CD33 T292A (human, UniProt P20138 18-364)
human CD33 F243A = human CD33 F243A (human, UniProt P20138 18-364)
human CD33 S305A = human CD33 S305A (human, UniProt P20138 18-364)
human CD33 G304A = human CD33 G304A (human, UniProt P20138 18-364)
human CD33 A265S = human CD33 A265S (human, UniProt P20138 18-364)
human CD33 L273A = human CD33 L273A (human, UniProt P20138 18-364)
human CD33 P308A = human CD33 P308A (human, UniProt P20138 18-364)
human CD33 K315A = human CD33 K315A (human, UniProt P20138 18-364)
human CD33 V257A = human CD33 V257A (human, UniProt P20138 18-364)
human CD33 G263A = human CD33 G263A (human, UniProt P20138 18-364)
human CD33 R287A = human CD33 R287A (human, UniProt P20138 18-364)
human CD33 A269S = human CD33 A269S (human, UniProt P20138 18-364)
human CD33 L316A = human CD33 L316A (human, UniProt P20138 18-364)
human CD33 D246A = human CD33 D246A (human, UniProt P20138 18-364)
human CD33 A255S = human CD33 A255S (human, UniProt P20138 18-364)
human CD33 A255S, sequence (P20138 18-364 A255S limits assumed): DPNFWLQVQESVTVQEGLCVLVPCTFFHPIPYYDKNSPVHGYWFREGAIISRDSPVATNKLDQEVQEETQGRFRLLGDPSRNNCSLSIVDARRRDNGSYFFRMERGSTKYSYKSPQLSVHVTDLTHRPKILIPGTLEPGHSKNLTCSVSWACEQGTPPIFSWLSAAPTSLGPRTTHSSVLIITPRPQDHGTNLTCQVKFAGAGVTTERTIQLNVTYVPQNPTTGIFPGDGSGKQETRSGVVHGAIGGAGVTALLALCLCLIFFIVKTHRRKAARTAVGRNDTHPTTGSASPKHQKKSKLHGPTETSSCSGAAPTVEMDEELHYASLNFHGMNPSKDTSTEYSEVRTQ

human CD33 A265S, sequence (P20138 18-364 A265S limits assumed): as the sequence (P20138 18-364 A255S limits assumed) above, with S238A, A248S counted along it
human CD33 R287A, sequence (P20138 18-364 R287A limits assumed): as the sequence (P20138 18-364 A255S limits assumed) above, with S238A, R270A counted along it
human CD33 A269S, sequence (P20138 18-364 A269S limits assumed): as the sequence (P20138 18-364 A255S limits assumed) above, with S238A, A252S counted along it
human CD33 L316A, sequence (P20138 18-364 L316A limits assumed): as the sequence (P20138 18-364 A255S limits assumed) above, with S238A, L299A counted along it
human CD33 H285A, sequence (P20138 18-364 H285A limits assumed): as the sequence (P20138 18-364 A255S limits assumed) above, with S238A, H268A counted along it
human CD33 V282A, sequence (P20138 18-364 V282A limits assumed): as the sequence (P20138 18-364 A255S limits assumed) above, with S238A, V265A counted along it
human CD33 P308A, sequence (P20138 18-364 P308A limits assumed): as the sequence (P20138 18-364 A255S limits assumed) above, with S238A, P291A counted along it
human CD33 V257A, sequence (P20138 18-364 V257A limits assumed): as the sequence (P20138 18-364 A255S limits assumed) above, with S238A, V240A counted along it
human CD33 S305A, sequence (P20138 18-364 S305A limits assumed): as the sequence (P20138 18-364 A255S limits assumed) above, with S238A, S288A counted along it
human CD33 K315A, sequence (P20138 18-364 K315A limits assumed): as the sequence (P20138 18-364 A255S limits assumed) above, with S238A, K298A counted along it
human CD33 G304A, sequence (P20138 18-364 G304A limits assumed): as the sequence (P20138 18-364 A255S limits assumed) above, with S238A, G287A counted along it
human CD33 G263A, sequence (P20138 18-364 G263A limits assumed): as the sequence (P20138 18-364 A255S limits assumed) above, with S238A, G246A counted along it
human CD33 T292A, sequence (P20138 18-364 T292A limits assumed): as the sequence (P20138 18-364 A255S limits assumed) above, with S238A, T275A counted along it
human CD33 L273A, sequence (P20138 18-364 L273A limits assumed): as the sequence (P20138 18-364 A255S limits assumed) above, with S238A, L256A counted along it
human CD33 R291A, sequence (P20138 18-364 R291A limits assumed): as the sequence (P20138 18-364 A255S limits assumed) above, with S238A, R274A counted along it
human CD33 D246A, sequence (P20138 18-364 D246A limits assumed): as the sequence (P20138 18-364 A255S limits assumed) above, with D229A, S238A counted along it
human CD33 D298A, sequence (P20138 18-364 D298A limits assumed): as the sequence (P20138 18-364 A255S limits assumed) above, with S238A, D281A counted along it
human CD33 F243A, sequence (P20138 18-364 F243A limits assumed): as the sequence (P20138 18-364 A255S limits assumed) above, with F226A, S238A counted along it
human CD33 I262A, sequence (P20138 18-364 I262A limits assumed): as the sequence (P20138 18-364 A255S limits assumed) above, with S238A, I245A counted along it

Row | Mean % WT Binding (human CD33 V282A) [% WT binding] | Mean % WT Binding (human CD33 H285A) [% WT binding] | Mean % WT Binding (human CD33 R291A) [% WT binding] | Mean % WT Binding (human CD33 I262A) [% WT binding] | Mean % WT Binding (human CD33 D298A) [% WT binding] | Mean % WT Binding (human CD33 T292A) [% WT binding] | Mean % WT Binding (human CD33 F243A) [% WT binding] | Mean % WT Binding (human CD33 S305A) [% WT binding] | Mean % WT Binding (human CD33 G304A) [% WT binding] | Mean % WT Binding (human CD33 A265S) [% WT binding] | Mean % WT Binding (human CD33 L273A) [% WT binding] | Mean % WT Binding (human CD33 P308A) [% WT binding] | Mean % WT Binding (human CD33 K315A) [% WT binding] | Mean % WT Binding (human CD33 V257A) [% WT binding] | Mean % WT Binding (human CD33 G263A) [% WT binding] | Mean % WT Binding (human CD33 R287A) [% WT binding] | Mean % WT Binding (human CD33 A269S) [% WT binding] | Mean % WT Binding (human CD33 L316A) [% WT binding] | Mean % WT Binding (human CD33 D246A) [% WT binding] | Mean % WT Binding (human CD33 A255S) [% WT binding] | Binder
1 | 73.2 | 94.3 | 97.5 | 130 | 80.1 | 99.6 | 107 | 103 | 121 | 92.4 | 125 | 82.8 | 136 | 89 | 116 | 112 | 97.4 | 90.4 | 115 | 97.7 | Refmab #3 (antibody, V domains shown, The alanine scan used IgG or Fab) VH: QVQLVQSGAEVKKPGSSVKVSCKASGYTFTDYNMHWVRQAPGQGLEWIGYIYPYNGGTGYNQKFKSKATITADESTNTAYMELSSLRSEDTAVYYCARGRPAMDYWGQGTLVTVSS VL: DIQMTQSPSSLSASVGDRVTITCRASESVDNYGISFMNWFQQKPGKAPKLLIYAASNQGSGVPSRFSGSGSGTDFTLTISSLQPDDFATYYCQQSKEVPWTFGQGTKVEIK
2 | 111 | 95.2 | 102 | 111 | 83.9 | 100 | 69.9 | 104 | 95 | 126 | 115 | 99.8 | 48.4 | 110 | 99.9 | 65.3 | 83.6 | 80 | 104 | 113 | Refmab #4 (antibody, V domains shown, The alanine scan used IgG or Fab) VH: QVQLVQSGAEVKKPGESVKVSCKASGYTFTNYGMNWVKQAPGQGLEWMGWINTYTGEPTYADKFQGRVTMTTDTSTSTAYMEIRNLGGDDTAVYYCARWSWSDGYYVYFDYWGQGTSVTVSS VL: DIVMTQSPDSLTVSLGERTTINCKSSQSVLDSSTNKNSLAWYQQKPGQPPKLLLSWASTRESGIPDRFSGSGSGTDFTLTIDSPQPEDSATYYCQQSAHFPITFGQGTRLEIK
3 | 112 | 109 | 122 | 115 | 81.5 | 94.2 | 102 | 107 | 111 | 104 | 117 | 89.7 | 111 | 108 | 102 | 110 | 111 | 104 | 114 | 109 | Refmab #2 (antibody, V domains shown, The alanine scan used IgG or Fab) VH: QVQLVQSGAEVKKPGSSVKVSCKASGGTFSDYAISWVRQAPGQGLEWMGRIIPILGVADYAQKFQGRVTITADKSTRTAYMELSSLRSEDTAVYYCARNWADAFDIWGQGTMVTVSS VL: DIQLTQSPSSLSASVGDRVTITCRASQGISSVLAWYQQKPGKAPKLLIYDASSLESGVPSRFSGSGSGTDFTLTISSLQPEDFATYYCQQFDSSITFGQGTKLEIK
